Experimental data from patent publication US20240060082A1.

Target: soybean's RPS5 homolog (soybean)
Test: cell-based or functional assay

Substance	resistance to the three soy rust strains in transgenic soybean, compared to control event G40 [% efficacy]
PBS1-R17 (modified Arabidopsis thaliana PBS1 with cleavage site R17, QVFEFL) (from UniProt Q9FE20 1-456)	> 85
PBS1-R19 (modified Arabidopsis thaliana PBS1 with cleavage site R19, QMIFLR) (from UniProt Q9FE20 1-456)	> 85
PBS1-R20 (modified Arabidopsis thaliana PBS1 with cleavage site R20, IFLWSA) (from UniProt Q9FE20 1-456)	> 85
